Patent US20240141372A1, “TRANSGENIC BANANA PLANTS HAVING INCREASED RESISTANCE TO FUSARIUM OXYSPORUM TROPICAL RACE 4 AND METHODS OF PRODUCING SAME” (Elo Life Systems, priority 2022, published 2024)

Key:
Foc_TR4 = test: In vitro spore germination and mycelial growth assay; format: cell-based, Fusarium oxysporum f.sp. cubense Tropical Race 4; conditions: Foc_TR4, in vitro fungal growth inhibition assay; read-out: IC50
[1] = test system: TR4 Fusarium oxysporum f sp. cubense (Foc); test: ARSS greenhouse assay of acclimated tissue culture banana plants; format: in vivo; conditions: transgenic banana lines per payload, FIG. 15

B1: Sm-AMP-D1: Sm-AMP-D1 anti-microbial peptide, tested as purified protein in vitro (protein)
chain: MAKTVLGIHVTFLTLLFAVILLNDVMYTPVEGKICERASGTWKGICIHSNDCNNQCVKWENAGSGSCHYQFPNYMCFCYFNC
IC50 (Foc_TR4): 2200 nM | disease necrosis [1]: 27%
